Test [1] deals with T1, Human IL2RG (interleukin-2 receptor subunit gamma), wild type (human, UniProt P31785 23-369).
T1 construct: also called wild type human IL2RG; WT IL2RG
T1 sequence: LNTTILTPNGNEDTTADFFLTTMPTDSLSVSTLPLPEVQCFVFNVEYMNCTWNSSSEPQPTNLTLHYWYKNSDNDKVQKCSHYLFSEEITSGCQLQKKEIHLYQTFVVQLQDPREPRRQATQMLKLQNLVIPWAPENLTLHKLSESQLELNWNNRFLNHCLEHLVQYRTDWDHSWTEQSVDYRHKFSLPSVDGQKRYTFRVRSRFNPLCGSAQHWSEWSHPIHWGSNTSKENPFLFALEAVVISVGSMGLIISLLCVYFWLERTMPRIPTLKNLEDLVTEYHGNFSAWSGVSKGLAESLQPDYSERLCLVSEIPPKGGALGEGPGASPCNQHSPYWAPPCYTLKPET
The test can be described thus: flow cytometry on iPSC-derived NK cells. (In flow cytometry, cells or beads pass a laser one at a time.)

The target of test [2] is T2, murine Il2rg (murine, UniProt P34902 23-369).
T2 construct: whole, on cells; also called mouse IL2RG; murine IL2rg receptor
T2 sequence (looked up): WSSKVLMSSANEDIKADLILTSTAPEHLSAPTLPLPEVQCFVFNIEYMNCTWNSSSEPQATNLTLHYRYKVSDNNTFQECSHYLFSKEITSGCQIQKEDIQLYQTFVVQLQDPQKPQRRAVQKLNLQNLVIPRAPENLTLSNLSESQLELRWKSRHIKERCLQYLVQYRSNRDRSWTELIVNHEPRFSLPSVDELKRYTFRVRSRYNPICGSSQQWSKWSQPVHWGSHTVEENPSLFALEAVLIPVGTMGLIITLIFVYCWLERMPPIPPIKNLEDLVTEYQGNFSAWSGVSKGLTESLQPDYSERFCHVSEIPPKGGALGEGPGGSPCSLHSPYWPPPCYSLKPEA
Description: stated in Example 1 for donor T cells of wild-type mice; no binding assay described.

Test [3] has as its target T3, recombinant human IL2RG extracellular domain (human, UniProt P31785 23-262).
T3 construct: also called IL2RG ectodomain; ECD
T3 sequence: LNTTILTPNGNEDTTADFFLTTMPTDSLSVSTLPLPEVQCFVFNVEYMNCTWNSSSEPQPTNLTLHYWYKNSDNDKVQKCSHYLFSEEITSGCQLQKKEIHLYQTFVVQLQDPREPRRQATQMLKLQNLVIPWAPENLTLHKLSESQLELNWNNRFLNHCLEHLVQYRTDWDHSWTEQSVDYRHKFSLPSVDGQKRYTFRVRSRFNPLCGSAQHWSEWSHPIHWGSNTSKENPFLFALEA
Description: cryoEM of the complex.

B1: REGN7257 (antibody, human IgG4 S228P, kappa, V domains shown)
VH: EVQLVESGGGLVQPGGSLRLSCAASGFIFSSYEMHWVRQAPGKGLEWISYISSSGTTIYYADSVKGRFTISRDNAKNSLYLHMNSLRAEDTAVYYCTRARITGTFDVFDIWGQGTMVTVSS
VL: DIQMTQSPSSLSASVGDRVTITCRASQSISSYLNWYQQKPGKAPKLLIFAASNLQSGVPSRFSGSRSGTDFTLTISSLQPEDFATYYCQQNYNIPYTFGQGTKLEIKR
notes: also called H4H12889P; anti-IL2RG antibody
In the case of B1, the binding result in test [1] was “binds”; in test [2], “no binding”.

B2: REGN7257 Fab region (Fab, V domains shown)
VH: B1 VH
VL: DIQMTQSPSSLSASVGDRVTITCRASQSISSYLNWYQQKPGKAPKLLIFAASNLQSGVPSRFSGSRSGTDFTLTISSLQPEDFATYYCQQNYNIPYTFGQGTKLEIK
notes: Fab region of REGN7257 used for cryoEM
Regarding B2, the binding result in test [3] is reported as “binds”.

(Values after US20240390460A1 (Regeneron, published 2024).)
